What is called Kd is the constant that tells how readily two partners part at equilibrium. The term koff denotes the first-order rate constant of dissociation. The term kon denotes the rate constant with which the complex forms.

The record followed here is patent US20200308290A1 (AbbVie / Abbott, published 2020).

One assay deals with T1, CD25 on Kit225/K6 cells (human, UniProt P01589 22-272).
T1 sequence (looked up): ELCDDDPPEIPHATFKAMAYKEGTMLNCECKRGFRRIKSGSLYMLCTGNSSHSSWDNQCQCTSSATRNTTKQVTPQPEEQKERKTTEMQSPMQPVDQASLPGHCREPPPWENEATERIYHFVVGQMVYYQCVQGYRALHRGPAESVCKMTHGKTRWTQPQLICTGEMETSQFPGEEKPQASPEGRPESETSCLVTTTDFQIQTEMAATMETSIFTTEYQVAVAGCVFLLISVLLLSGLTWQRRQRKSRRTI
As to the kind of experiment: cell-based or functional assay.

For assay [1], the target named is T2, cynomolgous monkey CD25 (cynomolgous monkey).
T2 construct: also called cmCD25; cm
The experiment in a line: SPR (BIAcore), cynomolgous CD25.

Assay [2] deals with T2, cynomolgous monkey CD25. As to the kind of experiment: SPR (BIAcore), cynomolgous CD25. This is another data set of the same source.
The target in assay [3] is T3, human CD25 (recombinant soluble) (human, UniProt P01589 22-240).
T3 construct: extracellular domain; bought protein; also called IL2-Rα; recombinant human IL2-Rα
T3 sequence (looked up): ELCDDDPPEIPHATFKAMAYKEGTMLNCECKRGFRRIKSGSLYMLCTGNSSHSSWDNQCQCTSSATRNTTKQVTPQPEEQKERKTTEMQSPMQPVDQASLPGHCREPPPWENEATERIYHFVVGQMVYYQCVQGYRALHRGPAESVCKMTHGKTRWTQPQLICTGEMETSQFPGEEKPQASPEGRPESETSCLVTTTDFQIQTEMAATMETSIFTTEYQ
The experiment in a line: SPR (BIAcore), antibody captured, CD25 injected.

The target of a further assay is T4, CD25 (recombinant) (human, UniProt P01589 22-213, limits assumed).
T4 construct: bought protein; also called IL2-R alpha; IL2-Rα
T4 sequence (looked up): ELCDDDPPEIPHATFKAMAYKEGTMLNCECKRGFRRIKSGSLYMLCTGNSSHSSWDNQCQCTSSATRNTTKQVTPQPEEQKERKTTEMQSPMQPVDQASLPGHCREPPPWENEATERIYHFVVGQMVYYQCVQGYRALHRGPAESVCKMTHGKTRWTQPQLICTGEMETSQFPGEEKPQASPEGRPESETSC
As to the kind of experiment: SPR (BIAcore). (Surface plasmon resonance follows binding to a sensor surface in real time, without labels.)

In the next assay the target is T5, human CD25 (human, UniProt P01589 22-213, limits assumed).
T5 construct: Recombinant soluble human CD25, coated on plates (ELISA) or injected over captured antibody (BIAcore); also called hCD25; IL2-R alpha
T5 sequence (looked up): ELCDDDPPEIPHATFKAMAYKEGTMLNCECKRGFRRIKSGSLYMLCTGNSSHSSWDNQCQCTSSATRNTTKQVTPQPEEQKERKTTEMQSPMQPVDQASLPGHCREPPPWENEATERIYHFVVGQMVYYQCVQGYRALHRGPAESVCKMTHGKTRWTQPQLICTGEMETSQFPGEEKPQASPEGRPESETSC
As to the kind of experiment: SPR (BIAcore).

Where two headings read alike, the source gives them in different places.

B1: NST-RN (antibody, IgG1, V domains shown)
VH: QVQLVQSGAEVKKPGSSVKVSCKASGYTFTSYRMHWVRQAPGQGLEWIGYINPSTGYTEYNQKFKDKATITADESTNTAYMELSSLRSEDTAVYYCARGGGVFDYWGQGTLVTVSS
VL: DIQMTQSPSTLSASVGDRVTITCSASSRISYMHWYQQKPGKAPKLLIYTTSNLASGVPARFSGSGSGTEFTLTISSLQPDDFATYYCHQRSTYPLTFGQGTKVEVK
Turning to B1, in the assay with CD25 on Kit225/K6 cells, the “Functional improvement (inhibition of proliferation of Kit225/K6 cells; IC50 normalized to wild type daclizumab)” value worked out at 1.5 fold.

B2: Variant C62 (antibody, V domains shown)
VH: QVQLVQSGAEVKKPGSSVKVSCKASGYTFTSYRMHWVRQAPGQGLEWMGYIKPNKGRTEYNQKFKDKATITADESTNTAYMELSSLRSEDTAVYYCARGGGVFDYWGQGTLVTVSS
VL: DIQMTQSPSTLSASVGDRVTITCSASSKISYMHWYQQKPGKAPKLLIYTTSDLASGVPARFSGSGSGTEFTLTISSLQPDDFATYYCHQRSTYPLTFGQGTKVEVK
B2: the Kd with cynomolgous monkey CD25 [1] and in the assay with cynomolgous monkey CD25 [2] was 0.1 nM throughout.

B3: Variant C63 (antibody, V domains shown)
VH: QVQLVQSGAEVKKPGSSVKVSCKASGYTFTSYRMHWVRQAPGQGLEWMGYIKPNSGRTEYNQKFKDKATITADESTNTAYMELSSLRSEDTAVYYCARGGGVFDYWGQGTLVTVSS
VL: DIQMTQSPSTLSASVGDRVTITCSASSKISYMHWYQQKPGKAPKLLIYTTSDLASGVPARFSGSGSGTEFTLTISSLQPDDFATYYCHQRSTYPLTFGQGTKVEVK
With B3, the Kd with cynomolgous monkey CD25 [1] and with cynomolgous monkey CD25 [2] was 0.063 nM in each case.

B4: Variant C61 (antibody, V domains shown)
VH: QVQLVQSGAEVKKPGSSVKVSCKASGYTFTSYRMHWVRQAPGQGLEWMGYISPNSGRTEYNQKFKDKATITADESTNTAYMELSSLRSEDTAVYYCARGGGVFDYWGQGTLVTVSS
VL: DIQMTQSPSTLSASVGDRVTITCSASSKISYMHWYQQKPGKAPKLLIYTTSDLASGVPARFSGSGSGTEFTLTISSLQPDDFATYYCHQRSTYPLTFGQGTKVEVK
Turning to B4, the Kd with cynomolgous monkey CD25 [1] and with cynomolgous monkey CD25 [2] was 0.055 nM each time.

B5: Y32A (antibody, IgG1, name in Kabat numbering, V domains shown)
VH: QVQLVQSGAEVKKPGSSVKVSCKASGYTFTSYRMHWVRQAPGQGLEWIGYINPSTGYTEYNQKFKDKATITADESTNTAYMELSSLRSEDTAVYYCARGGGVFDYWGQGTLVTVSS
VL: DIQMTQSPSTLSASVGDRVTITCSASSSISAMHWYQQKPGKAPKLLIYTTSNLASGVPARFSGSGSGTEFTLTISSLQPDDFATYYCHQRSTYPLTFGQGTKVEVK
Take B5: the “Functional improvement (inhibition of proliferation of Kit225/K6 cells; IC50 normalized to wild type daclizumab)” value with CD25 on Kit225/K6 cells was determined as 0.4 fold.

B6: SRK-SE (antibody, IgG1, name in Kabat numbering, V domains shown)
VH: QVQLVQSGAEVKKPGSSVKVSCKASGYTFTSYRMHWVRQAPGQGLEWIGYISPRKGYTEYNQKFKDKATITADESTNTAYMELSSLRSEDTAVYYCARGGGVFDYWGQGTLVTVSS
VL: DIQMTQSPSTLSASVGDRVTITCSASSSISYMHWYQQKPGKAPKLLIYTTSELASGVPARFSGSGSGTEFTLTISSLQPDDFATYYCHQRSTYPLTFGQGTKVEVK
notes: IgG1/kappa; also called S52R53K54 VH with S29E53 VL
B6: in assay [3], the “Affinity improvement (KD normalized to wild type daclizumab)” value came to 31 fold, the Kd came to 0.016 nM, the koff is 2.18e-05 s⁻¹ and the kon is 1.38e+06 M⁻¹ s⁻¹. In addition, in the assay with CD25 on Kit225/K6 cells, the “Functional improvement (inhibition of proliferation of Kit225/K6 cells; IC50 normalized to wild type daclizumab)” value amounted to 3.5 fold.

B7: daclizumab variant S77 (antibody, IgG1, name in Kabat numbering, V domains shown)
VH: QVQLVQSGAEVKKPGSSVKVSCKASGYTFTSYRMHWVRQAPGQGLEWMGYINPSTGYTEYNQKFKDKATITADESTNTAYMELSSLRSEDTAVYYCARGGGVFDYWGQGTLVTVSS
VL: DIQMTQSPSTLSASVGDRVTITCSASSSISYMHWYQQKPGKAPKLLIYTTSNLASGVPARFSGSGSGTEFTLTISSLQPDDFATYYCHQRSTYPLTFGQGTKVEVK
notes: IgG1; Kabat positions; also called I48M; DAC I48M
Regarding B7, the Kd with CD25 (recombinant) turned out to be 0.478 nM.

B8: Variant C15 (antibody, name in Kabat numbering, V domains shown)
VH: QVQLVQSGAEVKKPGSSVKVSCKASGYTFTSYRMHWVRQAPGQGLEWIGYIVPRRGYTEYNQKFKDKATITADESTNTAYMELSSLRSEDTAVYYCARGGGVFDYWGQGTLVTVSS
VL: DIQMTQSPSTLSASVGDRVTITCSASSSISYMHWYQQKPGKAPKLLIYTTSELASGVPARFSGSGSGTEFTLTISSLQPDDFATYYCHQRSTYPLTFGQGTKVEVK
notes: Isotype as printed: G1 fa; also called VRR-SE
In turn, B8 gave a Kd with human CD25 of 0.029 nM.

B9: RKT-SE (antibody, IgG1, name in Kabat numbering, V domains shown)
VH: QVQLVQSGAEVKKPGSSVKVSCKASGYTFTSYRMHWVRQAPGQGLEWIGYIRPKTGYTEYNQKFKDKATITADESTNTAYMELSSLRSEDTAVYYCARGGGVFDYWGQGTLVTVSS
VL: DIQMTQSPSTLSASVGDRVTITCSASSSISYMHWYQQKPGKAPKLLIYTTSELASGVPARFSGSGSGTEFTLTISSLQPDDFATYYCHQRSTYPLTFGQGTKVEVK
With B9, in the assay with CD25 on Kit225/K6 cells, the “Functional improvement (inhibition of proliferation of Kit225/K6 cells; IC50 normalized to wild type daclizumab)” value was found to be 2 fold.

B10: VRR-SE (antibody, IgG1, name in Kabat numbering, V domains shown)
VH: QVQLVQSGAEVKKPGSSVKVSCKASGYTFTSYRMHWVRQAPGQGLEWIGYIVPRRGYTEYNQKFKDKATITADESTNTAYMELSSLRSEDTAVYYCARGGGVFDYWGQGTLVTVSS
VL: DIQMTQSPSTLSASVGDRVTITCSASSSISYMHWYQQKPGKAPKLLIYTTSELASGVPARFSGSGSGTEFTLTISSLQPDDFATYYCHQRSTYPLTFGQGTKVEVK
notes: IgG1/kappa; also called VRRE-SE
B10: in assay [3], the “Affinity improvement (KD normalized to wild type daclizumab)” value was determined as 17 fold, the Kd came to 0.029 nM, the koff worked out at 3.29e-05 s⁻¹ and the kon stood at 1.24e+06 M⁻¹ s⁻¹. Moreover, the “Functional improvement (inhibition of proliferation of Kit225/K6 cells; IC50 normalized to wild type daclizumab)” value in the assay with CD25 on Kit225/K6 cells is 1.2 fold.

B11: S31A (antibody, IgG1, V domains shown)
VH: QVQLVQSGAEVKKPGSSVKVSCKASGYTFTSYRMHWVRQAPGQGLEWIGYINPSTGYTEYNQKFKDKATITADESTNTAYMELSSLRSEDTAVYYCARGGGVFDYWGQGTLVTVSS
VL: DIQMTQSPSTLSASVGDRVTITCSASSSIAYMHWYQQKPGKAPKLLIYTTSNLASGVPARFSGSGSGTEFTLTISSLQPDDFATYYCHQRSTYPLTFGQGTKVEVK
Turning to B11, the “Functional improvement (inhibition of proliferation of Kit225/K6 cells; IC50 normalized to wild type daclizumab)” value in the assay with CD25 on Kit225/K6 cells worked out at 0.7 fold.

B12: T50A (antibody, IgG1, V domains shown)
VH: QVQLVQSGAEVKKPGSSVKVSCKASGYTFTSYRMHWVRQAPGQGLEWIGYINPSTGYTEYNQKFKDKATITADESTNTAYMELSSLRSEDTAVYYCARGGGVFDYWGQGTLVTVSS
VL: DIQMTQSPSTLSASVGDRVTITCSASSSISYMHWYQQKPGKAPKLLIYATSNLASGVPARFSGSGSGTEFTLTISSLQPDDFATYYCHQRSTYPLTFGQGTKVEVK
For the molecule B12, in the assay with CD25 on Kit225/K6 cells, the “Functional improvement (inhibition of proliferation of Kit225/K6 cells; IC50 normalized to wild type daclizumab)” value was determined as 0.8 fold.

B13: RNR-SE (antibody, IgG1, name in Kabat numbering, V domains shown)
VH: QVQLVQSGAEVKKPGSSVKVSCKASGYTFTSYRMHWVRQAPGQGLEWIGYIRPNRGYTEYNQKFKDKATITADESTNTAYMELSSLRSEDTAVYYCARGGGVFDYWGQGTLVTVSS
VL: DIQMTQSPSTLSASVGDRVTITCSASSSISYMHWYQQKPGKAPKLLIYTTSELASGVPARFSGSGSGTEFTLTISSLQPDDFATYYCHQRSTYPLTFGQGTKVEVK
notes: IgG1/kappa
Take B13: in assay [3], the “Affinity improvement (KD normalized to wild type daclizumab)” value came out at 23 fold, the Kd worked out at 0.022 nM, the koff was 3.34e-05 s⁻¹ and the kon came to 1.54e+06 M⁻¹ s⁻¹. Besides, the “Functional improvement (inhibition of proliferation of Kit225/K6 cells; IC50 normalized to wild type daclizumab)” value with CD25 on Kit225/K6 cells is 2.4 fold.
